These are literature values, as cited in article PMC8900815.

In this series the target is His124 (UniProt position 124, EWVKGHAGHPE). The series is described as follows: NMR. The conditions noted are these: metal-free (no divalent cation bound).

With “Ribonuclease HI (RNase HI) (Escherichia coli)”, the pKa result is “around 7”.
